Laboratory results as given in patent US7344856.
Entries after “also recorded” stand apart in the source; their conditions may differ.

Legend:
[1] = biological target: fusion protein PKS
[2] = biological target: fusion protein RShANP
[3] = biological target: fusion protein PRR
[4] = biological target: fusion protein PRhCT, P01258
[5] = biological target: fusion protein PRR-6K
[6] = biological target: fusion protein PRR-1A
[7] = biological target: fusion protein PRR-10A
[8] = biological target: fusion protein PRR-4Q
[9] = biological target: fusion protein PRR-6D
[10] = biological target: fusion protein PRR-4K
[11] = biological target: fusion protein RAhANP
[12] = biological target: fusion protein PRhANP, P01160
[13] = biological target: fusion protein PRR-3A
[14] = biological target: fusion protein PKA
[15] = biological target: T1, Dynorphine A, P01213
T1 chain: YGGFLRRIRPKLKWDNQ

[16] = biological target: fusion protein PRC
[17] = biological target: fusion protein PKK
[18] = biological target: fusion protein PKR
[19] = biological target: fusion protein RChANP
[20] = biological target: fusion protein PRR-5A
[21] = biological target: fusion protein PRR-6N
[22] = biological target: fusion protein PRE
[23] = biological target: fusion protein PRR-2A
[24] = biological target: fusion protein PRR-4A
[25] = biological target: fusion protein PRR-4E
[26] = biological target: fusion protein PRR-6Q
[27] = biological target: fusion protein PRR-6A
[28] = biological target: fusion protein PRR-6R
[29] = biological target: fusion protein PRR-4D
[30] = biological target: fusion protein PRA
[31] = biological target: fusion protein PRR-4N
[32] = biological target: fusion protein PKD
[33] = biological target: fusion protein RShANPR
[34] = biological target: fusion protein RRhANP
[35] = biological target: fusion protein PKE
[36] = biological target: fusion protein PRR-8A
[37] = biological target: fusion protein PRS
[38] = biological target: fusion protein expressed by pG117S4HompRHKR
[39] = biological target: fusion protein PRR-9A
[40] = biological target: fusion protein PRD

fusion protein PRhANP, P01160, sequence (P01160 other isoform, or with tags, fused parts or gaps): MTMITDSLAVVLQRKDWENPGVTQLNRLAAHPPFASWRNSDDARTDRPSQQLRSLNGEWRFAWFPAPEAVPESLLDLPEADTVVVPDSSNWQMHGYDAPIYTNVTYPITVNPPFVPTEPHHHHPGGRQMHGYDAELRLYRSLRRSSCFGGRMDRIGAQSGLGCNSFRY
fusion protein PRhCT, P01258, sequence (P01258 other isoform, or with tags, fused parts or gaps): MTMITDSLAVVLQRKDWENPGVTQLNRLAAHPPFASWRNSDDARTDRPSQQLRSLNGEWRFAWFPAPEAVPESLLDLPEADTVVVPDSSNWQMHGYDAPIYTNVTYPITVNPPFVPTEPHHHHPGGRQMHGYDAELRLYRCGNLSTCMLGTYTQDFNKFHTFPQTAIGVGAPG

B1: E. coli OmpT protease (purified OmpT protease specimen) (protein)
chain: STETLSFTPDNINADISLGTLSGKTKERVYLAEEGGRKVSQLDWKFNNAAIIKGAINWDLMPQISIGAAGWTTLGSRGGNMVDQDWMDSSNPGTWTDESRHPDTQLNYANEFDLNIKGWLLNEPNYRLGLMAGYQESRYSFTARGGSYIYSSEEGFRDDIGSFPNGERAIGYKQRFKMPYIGLTGSYRYEDFELGGTFKYSGWVESSDNDEHYDPGKRITYRSKVKDQNYYSVAVNAGYYVTPNAKVYVEGAWNRVTNKKGNTSLYDHNNNTSDYSKNGAGIENYNFITTAGLKYTF
In the case of B1, the “cleavage by OmpT protease (SDS-PAGE)” value [1] is reported as “PKA and PKS forming no basic amino acid pair were cleaved by OmpT protease”, the “cleavage by OmpT protease (SDS-PAGE)” value [2] is reported as “it was confirmed that RShANP could be cleaved by OmpT protease” and the Relative amount of 4.9 kDa peptide (HPLC; 25 C, 60 min, pH 7.0) (relative to PRR = 100) [3] is reported as 100. The Relative amount of 4.9 kDa peptide (HPLC; OmpT 0.1 U/ml, 25 C, 60 min) (relative to PRR = 100) [3] was 100, the Relative amount of 4.9 kDa peptide (HPLC; OmpT 2.0 U/ml, 25 C, 60 min) (relative to PRR = 100) [3] was 100 and the “cleavage by OmpT protease (SDS-PAGE)” value [3] was “the cleavage by OmpT protease was confirmed in the fusion proteins other than PRR-1A”. The “cleavage by OmpT protease (SDS-PAGE; OmpT 0.1 U/ml)” value [3] was “the cleavage by OmpT protease was observed in all of the fusion proteins”, the “cleavage by OmpT protease (SDS-PAGE; OmpT 2.0 U/ml)” value [3] was “the cleavage by OmpT protease was observed in all of the fusion proteins” and the “cleavage by OmpT protease (SDS-PAGE)” value [4] was “PRhCT was not cleaved thereby”. For the same protein, the Relative amount of 4.9 kDa peptide (HPLC; OmpT 0.1 U/ml, 25 C, 60 min) (relative to PRR = 100) [5] was 1400, the “cleavage by OmpT protease (SDS-PAGE; OmpT 0.1 U/ml)” value [5] was “the cleavage by OmpT protease was observed in all of the fusion proteins” and the “cleavage by OmpT protease (SDS-PAGE)” value [6] was “The PRR-1A was not cleaved by OmpT protease”. The Relative amount of 4.9 kDa peptide (HPLC; 25 C, 60 min, pH 7.0) (relative to PRR = 100) [7] was 160, the “cleavage by OmpT protease (SDS-PAGE)” value [7] was “the cleavage by OmpT protease was confirmed in the fusion proteins other than PRR-1A” and the Relative amount of 4.9 kDa peptide (HPLC; OmpT 2.0 U/ml, 25 C, 60 min) (relative to PRR = 100) [8] was 23. The “cleavage by OmpT protease (SDS-PAGE; OmpT 2.0 U/ml)” value [8] was “the cleavage by OmpT protease was observed in all of the fusion proteins”, the Relative amount of 4.9 kDa peptide (HPLC; OmpT 0.1 U/ml, 25 C, 60 min) (relative to PRR = 100) [9] was 110 and the “cleavage by OmpT protease (SDS-PAGE; OmpT 0.1 U/ml)” value [9] was “the cleavage by OmpT protease was observed in all of the fusion proteins”. The Relative amount of 4.9 kDa peptide (HPLC; OmpT 2.0 U/ml, 25 C, 60 min) (relative to PRR = 100) [10] was 96, the “cleavage by OmpT protease (SDS-PAGE; OmpT 2.0 U/ml)” value [10] was “the cleavage by OmpT protease was observed in all of the fusion proteins” and the “cleavage at sites inside the α-hANP moiety” value [11] was “arginine-arginine alone was slightly cleaved, among the four sites (arginine-arginine, arginine-methionine, arginine-isoleucine and arginine-tyrosine) existing in α-hANP molecule ... while the other bonds were scarcely cleaved”. For the same protein, the “cleavage by OmpT protease (SDS-PAGE)” value [11] was “cleavage by OmpT protease was observed in RRhANP, RAhANP and RChANP”, the “cleavage by OmpT protease (SDS-PAGE)” value [12] was “PRhANP was cleaved by OmpT protease” and the Relative amount of 4.9 kDa peptide (HPLC; 25 C, 60 min, pH 7.0) (relative to PRR = 100) [13] was 44. For the same protein, the “cleavage by OmpT protease (SDS-PAGE)” value [13] was “the cleavage by OmpT protease was confirmed in the fusion proteins other than PRR-1A”, the “cleavage by OmpT protease (SDS-PAGE)” value [14] was “PKA and PKS forming no basic amino acid pair were cleaved by OmpT protease” and the “OmpT protease activity (cleavage of Dynorphine A, HPLC)” value [15] was 40 U/ml. For the same protein, the “cleavage efficiency by OmpT protease” value [16] was “Alanine and cysteine were selected because they provided relatively high cleavage efficiency in Example 3”, the “cleavage by OmpT protease (SDS-PAGE)” value [17] was “PKK and PKR employed as positive controls were cleaved by OmpT protease” and the “cleavage by OmpT protease (SDS-PAGE)” value [18] was “PKK and PKR employed as positive controls were cleaved by OmpT protease”. The “cleavage at sites inside the α-hANP moiety” value [19] was “arginine-arginine alone was slightly cleaved, among the four sites (arginine-arginine, arginine-methionine, arginine-isoleucine and arginine-tyrosine) existing in α-hANP molecule ... while the other bonds were scarcely cleaved”, the “cleavage by OmpT protease (SDS-PAGE)” value [19] was “cleavage by OmpT protease was observed in RRhANP, RAhANP and RChANP” and the Relative amount of 4.9 kDa peptide (HPLC; 25 C, 60 min, pH 7.0) (relative to PRR = 100) [20] was 89. The “cleavage by OmpT protease (SDS-PAGE)” value [20] was “the cleavage by OmpT protease was confirmed in the fusion proteins other than PRR-1A”, the Relative amount of 4.9 kDa peptide (HPLC; OmpT 0.1 U/ml, 25 C, 60 min) (relative to PRR = 100) [21] was 430 and the “cleavage by OmpT protease (SDS-PAGE; OmpT 0.1 U/ml)” value [21] was “the cleavage by OmpT protease was observed in all of the fusion proteins”. For the same protein, the “cleavage by OmpT protease (SDS-PAGE)” value [22] was “In PRD and PRE, no cleavage by OmpT protease was observed”, the Relative amount of 4.9 kDa peptide (HPLC; 25 C, 60 min, pH 7.0) (relative to PRR = 100) [23] was 150 and the “cleavage by OmpT protease (SDS-PAGE)” value [23] was “the cleavage by OmpT protease was confirmed in the fusion proteins other than PRR-1A”. The Relative amount of 4.9 kDa peptide (HPLC; 25 C, 60 min, pH 7.0) (relative to PRR = 100) [24] was 24, the Relative amount of 4.9 kDa peptide (HPLC; OmpT 2.0 U/ml, 25 C, 60 min) (relative to PRR = 100) [24] was 49 and the “cleavage by OmpT protease (SDS-PAGE)” value [24] was “the cleavage by OmpT protease was confirmed in the fusion proteins other than PRR-1A”. For the same protein, the “cleavage by OmpT protease (SDS-PAGE; OmpT 2.0 U/ml)” value [24] was “the cleavage by OmpT protease was observed in all of the fusion proteins”, the Relative amount of 4.9 kDa peptide (HPLC; OmpT 2.0 U/ml, 25 C, 60 min) (relative to PRR = 100) [25] was 2 and the “cleavage by OmpT protease (SDS-PAGE; OmpT 2.0 U/ml)” value [25] was “the cleavage by OmpT protease was observed in all of the fusion proteins”. For the same protein, the Relative amount of 4.9 kDa peptide (HPLC; OmpT 0.1 U/ml, 25 C, 60 min) (relative to PRR = 100) [26] was 390, the “cleavage by OmpT protease (SDS-PAGE; OmpT 0.1 U/ml)” value [26] was “the cleavage by OmpT protease was observed in all of the fusion proteins” and the Relative amount of 4.9 kDa peptide (HPLC; 25 C, 60 min, pH 7.0) (relative to PRR = 100) [27] was 330. For the same protein, the Relative amount of 4.9 kDa peptide (HPLC; OmpT 0.1 U/ml, 25 C, 60 min) (relative to PRR = 100) [27] was 310, the “cleavage by OmpT protease (SDS-PAGE)” value [27] was “the cleavage by OmpT protease was confirmed in the fusion proteins other than PRR-1A” and the “cleavage by OmpT protease (SDS-PAGE; OmpT 0.1 U/ml)” value [27] was “the cleavage by OmpT protease was observed in all of the fusion proteins”. The Relative amount of 4.9 kDa peptide (HPLC; OmpT 0.1 U/ml, 25 C, 60 min) (relative to PRR = 100) [28] was 1000, the “cleavage by OmpT protease (SDS-PAGE; OmpT 0.1 U/ml)” value [28] was “the cleavage by OmpT protease was observed in all of the fusion proteins” and the Relative amount of 4.9 kDa peptide (HPLC; OmpT 2.0 U/ml, 25 C, 60 min) (relative to PRR = 100) [29] was 2.8. The “cleavage by OmpT protease (SDS-PAGE; OmpT 2.0 U/ml)” value [29] was “the cleavage by OmpT protease was observed in all of the fusion proteins”, the “cleavage efficiency by OmpT protease” value [30] was “Alanine and serine were employed because they showed relatively high cleavage efficiency in Example 3; also recorded: Alanine and cysteine were selected because they provided relatively high cleavage efficiency in Example 3” and the Relative amount of 4.9 kDa peptide (HPLC; OmpT 2.0 U/ml, 25 C, 60 min) (relative to PRR = 100) [31] was 48. The “cleavage by OmpT protease (SDS-PAGE; OmpT 2.0 U/ml)” value [31] was “the cleavage by OmpT protease was observed in all of the fusion proteins”, the “cleavage by OmpT protease (SDS-PAGE)” value [32] was “PKD and PKE were not cleaved by OmpT protease” and the “relative amount of the released α-hANP (HPLC peak at 4.7 minutes; OmpT 2.0 U/ml, 25 C, 90 min)” value [33] was 2.2 times as much as that of RShANP. The “cleavage at sites inside the α-hANP moiety” value [34] was “arginine-arginine alone was slightly cleaved, among the four sites (arginine-arginine, arginine-methionine, arginine-isoleucine and arginine-tyrosine) existing in α-hANP molecule ... while the other bonds were scarcely cleaved”, the “cleavage by OmpT protease (SDS-PAGE)” value [34] was “cleavage by OmpT protease was observed in RRhANP, RAhANP and RChANP” and the “cleavage by OmpT protease (SDS-PAGE)” value [35] was “PKD and PKE were not cleaved by OmpT protease”. The Relative amount of 4.9 kDa peptide (HPLC; 25 C, 60 min, pH 7.0) (relative to PRR = 100) [36] was 200, the “cleavage by OmpT protease (SDS-PAGE)” value [36] was “the cleavage by OmpT protease was confirmed in the fusion proteins other than PRR-1A” and the “cleavage efficiency by OmpT protease” value [37] was “Alanine and serine were employed because they showed relatively high cleavage efficiency in Example 3”. For the same protein, the “cleavage by OmpT protease (preliminary experiments)” value [38] was “this fusion protein is cleaved at two sites when treated with OmpT protease”, the Relative amount of 4.9 kDa peptide (HPLC; 25 C, 60 min, pH 7.0) (relative to PRR = 100) [39] was 160 and the “cleavage by OmpT protease (SDS-PAGE)” value [39] was “the cleavage by OmpT protease was confirmed in the fusion proteins other than PRR-1A”. For the same protein, the “cleavage by OmpT protease (SDS-PAGE)” value [40] was “In PRD and PRE, no cleavage by OmpT protease was observed”.
